The series has as its target 19 peptidomimetic BACE inhibitors.

B1: purified full-length human BACE with six C-terminal His residues, expressed in Sf9 insect cells (protein)
chain: ETDEEPEEPGRRGSFVEMVDNLRGKSGQGYYVEMTVGSPPQTLNILVDTGSSNFAVGAAPHPFLHRYYQRQLSSTYRDLRKGVYVPYTQGKWEGELGTDLVSIPHGPNVTVRANIAAITESDKFFINGSNWEGILGLAYAEIARPDDSLEPFFDSLVKQTHVPNLFSLQLCGAGFPLNQSEVLASVGGSMIIGGIDHSLYTGSLWYTPIRREWYYEVIIVRVEINGQDLKMDCKEYNYDKSIVDSGTTNLRLPKKVFEAAVKSIKAASSTEKFPDGFWLGEQLVCWQAGTTPWNIFPVISLYLMGEVTNQSFRITILPQQYLRPVEDVATSQDDCYKFAISQSSTGTVMGAVIMEGFYVVFDRARKRIGFAVSACHVHDEFRTAAVEGPFVTLDMEDCGYNIPQTDESTLMTIAYVMAAICALFMLPLCLMVCQWRCLRCLRQQHDDFADDISLLKHHHHHH
For B1, the “FRET assay (proteolytic activity of beta-secretase)” value is listed as “test compounds inhibiting the binding of a tagged beta-secretase to beta-secretase also inhibit the proteolytic activity of beta-secretase leading to production of A-beta over a broad range of IC-50 values”.

(Values after US20030125257.)
